Assay results reported in patent US20200055939A1 (Genentech, published 2020).
Substitutions are numbered along the chain they refer to.

T1: MICA*008 on MEL-JUSO cells (human, UniProt Q29983 24-317)
T1 chain: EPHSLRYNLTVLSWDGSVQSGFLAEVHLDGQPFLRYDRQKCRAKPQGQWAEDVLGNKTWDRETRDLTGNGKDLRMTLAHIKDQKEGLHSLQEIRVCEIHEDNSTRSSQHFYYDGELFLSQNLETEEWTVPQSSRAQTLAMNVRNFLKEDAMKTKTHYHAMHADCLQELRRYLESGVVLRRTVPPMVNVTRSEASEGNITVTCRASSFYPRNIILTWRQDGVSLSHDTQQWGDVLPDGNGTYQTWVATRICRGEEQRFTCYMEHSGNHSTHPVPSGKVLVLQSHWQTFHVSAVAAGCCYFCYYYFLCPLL

T2: huMICA*002 alpha 3-his (human)
T2 construct: whole construct entry: GS, alpha 3 domain, GNS, His8; also called MICA002.His; MICA*002 alpha3 construct
T2 chain: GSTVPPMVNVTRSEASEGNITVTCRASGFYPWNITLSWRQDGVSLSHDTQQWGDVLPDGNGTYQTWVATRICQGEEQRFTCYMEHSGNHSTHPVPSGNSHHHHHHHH

T3: huMICA*004 alpha 3-his (human)
T3 construct: whole construct entry: GS, alpha 3 domain, GNS, His8; also called MICA004.His; MICA*004 alpha3 construct
T3 chain: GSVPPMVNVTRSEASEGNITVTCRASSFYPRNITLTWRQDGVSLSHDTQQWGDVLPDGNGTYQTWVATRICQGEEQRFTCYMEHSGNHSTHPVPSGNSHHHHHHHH

T4: huMICA*008 alpha 3-his (human)
T4 construct: whole construct entry: GS, alpha 3 domain (Thr204-Ser297), GNS, His8; also the construct of the FPOP experiment; also called MICA008.His; MICA*008 alpha3 construct
T4 chain: T2 chain with G28S, W32R, T35I, S37T, Q73R

T5: huMICB*005 alpha 3-his (human)
T5 construct: whole construct entry: GS, alpha 3 domain, GNS, His8; also called MICB005.His; MICB*005 alpha3 construct
T5 chain: T2 chain with R12C, A15V, G28S, W32R, S37T, D48N, C72R, S90G

B1: 13A9v2 (antibody, IgG1, V domains shown)
VH: EVQLVQSGAEVKKPGASVKVSCKASGYAFTNYLIEWVRQAPGQGLEWIGAINPGSGATNYNEKFKDRATLTADKSTNTAYLELSSLRSEDTAVYFCARFLGNYFDNWGQGTLVTVSS
VL: DIQMTQSPSSLSASVGDRVTITCRASGNIHSYLAWYQQKPGKAPKLLIYYAETLADGVPSRFSGSGSGTDFTLTISSLQPEDFATYYCQQFWTTPYTFGQGTKVEIK
notes: humanized variant of 13A9
B2: 13A9v1 (antibody, IgG1, V domains shown)
VH: B1 VH with A68V, L70I, K74T, N77S, F95Y
VL: B1 VL
notes: humanized variant of 13A9
B3: 13A9v4 (antibody, IgG1, V domains shown)
VH: B1 VH
VL: B1 VL with A43S, I48V, F71Y, Y87F
notes: humanized variant of 13A9
B4: 13A9v3 (antibody, IgG1, V domains shown)
VH: B1 VH with A68V, L70I, K74T, N77S, F95Y
VL: B1 VL with A43S, I48V, F71Y, Y87F
notes: humanized variant of 13A9
B5: 1D5v12 (antibody, IgG1, V domains shown)
VH: EVQLVQSGAEVKKPGASVKVSCKASGYAFTSQNIYWVRQAPGQGLEWIGYIEPYNVVPMYNPKFKGRVTITRDTSTSTAYLELSSLRSEDTAVYYCARSGSSNFDYWGQGTLVTVSS
VL: DIQLTQSPSSLSASVGDRVTITCSASSSISSHYLHWYQQKPGKSPKLLIYRTSNLASGVPSRFSGSGSGTDYTLTISSLQPEDFATYYCQQGSSLPLTFGQGTKVEIK
notes: humanized variant of 1D5
B6: 1D5v21 (antibody, IgG1, V domains shown)
VH: B5 VH with V2I, V68A, R72V, T74K
VL: B5 VL
notes: humanized variant of 1D5
B7: 1D5v28 (antibody, IgG1, V domains shown)
VH: B5 VH with V2I, M59L, V68A, I70L, R72V, T74K
VL: B5 VL
notes: humanized variant of 1D5
B8: 1D5v27 (antibody, IgG1, V domains shown)
VH: B5 VH with V2I, M59A, V68A, I70L, R72V, T74K
VL: B5 VL
notes: humanized variant of 1D5
B9: 1D5v23 (antibody, IgG1, V domains shown)
VH: B5 VH with V2I, V68A, I70L, R72V
VL: B5 VL
notes: humanized variant of 1D5
B10: 1D5v13 (antibody, IgG1, V domains shown)
VH: B5 VH with V2I, V68A, I70L, R72V, T74K, L81M, S84R, E89D
VL: B5 VL with L4M, S44A, Y72F
notes: humanized variant of 1D5
B11: 1D5v19 (antibody, IgG1, V domains shown)
VH: B5 VH with V68A, I70L, R72V, T74K
VL: B5 VL
notes: humanized variant of 1D5
B12: 1D5v22 (antibody, IgG1, V domains shown)
VH: B5 VH with V2I, V68A, I70L, T74K
VL: B5 VL
notes: humanized variant of 1D5
B13: 1D5v18 (antibody, IgG1, V domains shown)
VH: B5 VH with V2I, V68A, I70L, R72V, T74K
VL: B5 VL with Y72F
notes: humanized variant of 1D5
B14: 1D5v16 (antibody, IgG1, V domains shown)
VH: B5 VH
VL: B5 VL with L4M, S44A, Y72F
notes: humanized variant of 1D5
B15: 1D5v24 (antibody, IgG1, V domains shown)
VH: B5 VH with R72V, T74K
VL: B5 VL
notes: humanized variant of 1D5
B16: 1D5v29 (antibody, IgG1, V domains shown)
VH: B5 VH with V2I, M59V, V68A, I70L, R72V, T74K
VL: B5 VL
notes: humanized variant of 1D5
B17: 1D5v15 (antibody, IgG1, V domains shown)
VH: B5 VH with V2I, V68A, I70L, R72V, T74K
VL: B5 VL with L4M, S44A, Y72F
notes: humanized variant of 1D5
B18: 1D5v20 (antibody, IgG1, V domains shown)
VH: B5 VH with V2I, I70L, R72V, T74K
VL: B5 VL
notes: humanized variant of 1D5
B19: 1D5v17 (antibody, IgG1, V domains shown)
VH: B5 VH with V2I, V68A, I70L, R72V, T74K
VL: B5 VL with L4M
notes: humanized variant of 1D5
B20: 1D5v26 (antibody, IgG1, V domains shown)
VH: B5 VH with T74K
VL: B5 VL
notes: humanized variant of 1D5
B21: 1D5v25 (antibody, IgG1, V domains shown)
VH: B5 VH with R72V
VL: B5 VL
notes: humanized variant of 1D5

Target: T1, MICA*008 on MEL-JUSO cells
Assay: cell-based or functional assay
For % Inhibition in this document: test concentration or dose not given here.

% Inhibition [%] | Binder
12 | B1
10 | B2
-31 | B3
2 | B4
44 | B5
62 | B6
0 | B7
69 | B8
63 | B9
51 | B10
57 | B11
57 | B12
64 | B13
51 | B14
65 | B15
57 | B16
48 | B17
56 | B18
68 | B19
50 | B20
62 | B21

These binders were tested against MICA*004 on HCC1534 cells (human, UniProt Q29983 24-383) (assay: cell-based or functional assay).

% Inhibition [%] | Binder
10 | B1
12 | B2
-29 | B3
25 | B4
50 | B5
55 | B6
3 | B7
53 | B8
50 | B9
49 | B10
44 | B11
46 | B12
47 | B13
50 | B14
50 | B15
40 | B16
45 | B17
46 | B18
52 | B19
37 | B20
46 | B21

What follows are binders tested against MICB*005 on HCC1534 cells (human) (assay: cell-based or functional assay).

% Inhibition [%] | Binder
60 | B1
43 | B2
63 | B3
42 | B4
27 | B5
25 | B6
36 | B7
-8 | B8
38 | B9
43 | B10
40 | B11
34 | B12
41 | B13
51 | B14
43 | B15
-8 | B16
39 | B17
39 | B18
50 | B19
42 | B20
28 | B21

Target: T2, huMICA*002 alpha 3-his
Assay: SPR, Biacore 8K, antibody on Protein A chip
Protocol: (§1) A Protein A sensorchip (GE Healthcare) was used following manufacturer provided protocols to capture humanized anti-MICA/B antibodies. The MICA/B alleles were passed over. Antibody binding was measured to human MICA 002, 004, 008 and MICB 005 alpha 3 domains (His tagged, in-house). Sensograms for binding of MICA/B were recorded using an injection time of 2 minutes with a flow rate of 30 ml/min, at a temperature of 25° C., and with a running buffer of 10 mM HEPES, pH 7.4, 150 mM NaCl, 3mM EDTA, and 0.005% Tween 20. After injection, disassociation of the alpha 3 domain from the antibody was monitored for 10 minutes in running buffer. The surface was regenerated between binding cycles with a 60 ul injection of 10 mM Glycine HCl pH 1.5. […] The data was analyzed using a 1:1 binding model. Sensograms of MICA alleles binding to captured anti-MICA antibody were used to calculate the dissociation constant (Kd).

Kd [nM] | Binder
4.44 | B1
5.87 | B2
3.93 | B3
4.97 | B4
4.64 | B5
1.35 | B6
1.19 | B7
1.85 | B8
1.11 | B9
1.2 | B10
1.16 | B11
6.46 | B12
1.04 | B13
4.09 | B14
1.21 | B15
2.01 | B16
1.06 | B17
1.14 | B18
0.91 | B19
3.9 | B20
1.22 | B21

Target: T3, huMICA*004 alpha 3-his
Assay: SPR, Biacore 8K, antibody on Protein A chip
Protocol: as §1

Kd [nM] | Binder
5.32 | B1
8.37 | B2
3.69 | B3
4.79 | B4
3.91 | B5
1.08 | B6
0.87 | B7
1.52 | B8
0.9 | B9
0.91 | B10
0.88 | B11
5.45 | B12
0.79 | B13
3.42 | B14
0.9 | B15
1.58 | B16
0.81 | B17
0.88 | B18
0.68 | B19
3.17 | B20
0.96 | B21

Target: T4, huMICA*008 alpha 3-his
Assay: SPR, Biacore 8K, antibody on Protein A chip
Protocol: as §1

Kd [nM] | Binder
2.56 | B1
5.6 | B2
2.72 | B3
3.85 | B4
3.66 | B5
0.99 | B6
0.84 | B7
1.44 | B8
0.58 | B9
0.85 | B10
0.83 | B11
4.98 | B12
0.75 | B13
3.21 | B14
1.41 | B15
1.65 | B16
0.76 | B17
0.83 | B18
0.64 | B19
3.12 | B20
0.93 | B21

Target: T5, huMICB*005 alpha 3-his
Assay: SPR, Biacore 8K, antibody on Protein A chip
Protocol: as §1

Kd [nM] | Binder
3.15 | B1
5.12 | B2
2.4 | B3
3.15 | B4
9.16 | B5
1.98 | B6
1.49 | B7
3.31 | B8
1.65 | B9
1.48 | B10
1.51 | B11
13.2 | B12
1.41 | B13
8.37 | B14
1.62 | B15
3.86 | B16
1.26 | B17
1.57 | B18
1.01 | B19
7.15 | B20
1.84 | B21
